Measurements published in patent publication US20210054055A1 (UNIVERSITY OF VERMONT AND STATE AGRICULTURAL COLLEGE, published 2021).
Where two headings read alike, the source gives them in different places.

T1: MR766
T1 envelope protein E: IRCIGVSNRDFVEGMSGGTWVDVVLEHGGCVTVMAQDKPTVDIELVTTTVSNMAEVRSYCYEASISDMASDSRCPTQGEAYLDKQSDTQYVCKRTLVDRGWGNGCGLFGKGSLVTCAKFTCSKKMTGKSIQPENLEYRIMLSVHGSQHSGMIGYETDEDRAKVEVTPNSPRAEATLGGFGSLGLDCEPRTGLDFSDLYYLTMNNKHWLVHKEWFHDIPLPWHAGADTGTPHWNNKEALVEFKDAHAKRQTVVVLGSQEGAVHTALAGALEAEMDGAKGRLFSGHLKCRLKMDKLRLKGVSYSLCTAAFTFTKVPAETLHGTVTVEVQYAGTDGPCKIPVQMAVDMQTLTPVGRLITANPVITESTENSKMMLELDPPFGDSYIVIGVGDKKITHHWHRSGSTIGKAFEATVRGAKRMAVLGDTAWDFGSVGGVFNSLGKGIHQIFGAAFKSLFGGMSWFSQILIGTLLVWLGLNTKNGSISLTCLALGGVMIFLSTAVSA


What was measured:
[1] = target: Dakar (Zika virus); assay: cell-based or functional assay
[2] = target: T1, MR766; assay: cell-based or functional assay
[3] = target: H/PF/2013 (Zika virus); assay: cell-based or functional assay
[4] = target: T2, Zika virus (ZIKV) virions, envelope protein E (Zika virus, UniProt A0A024B7W1 291-794)
[5] = target: T2, Zika virus (ZIKV) virions, envelope …; remark: listed apart in the source
[6] = target: T3, ZIKV recombinant E (ZIKV E80), recombinantly expressed monomeric ectodomain of ZIKV E protein (Zika virus, UniProt A0A024B7W1 291-694)
[7] = target: T2, Zika virus (ZIKV) virions, envelope …; remark: listed apart in the source
[8] = target: T2, Zika virus (ZIKV) virions, envelope …; remark: listed apart in the source
[9] = target: T3, ZIKV recombinant E (ZIKV E80), …; remark: listed apart in the source
[10] = target: T3, ZIKV recombinant E (ZIKV E80), …; remark: listed apart in the source
[11] = target: T4, Dengue virus serotype 1 (DENV1) virions, envelope protein E (Dengue virus 1, UniProt P17763 281-775); assay: antigen capture ELISA
T4 construct: domain: envelope protein E
T4 sequence (P17763 281-775 limits assumed): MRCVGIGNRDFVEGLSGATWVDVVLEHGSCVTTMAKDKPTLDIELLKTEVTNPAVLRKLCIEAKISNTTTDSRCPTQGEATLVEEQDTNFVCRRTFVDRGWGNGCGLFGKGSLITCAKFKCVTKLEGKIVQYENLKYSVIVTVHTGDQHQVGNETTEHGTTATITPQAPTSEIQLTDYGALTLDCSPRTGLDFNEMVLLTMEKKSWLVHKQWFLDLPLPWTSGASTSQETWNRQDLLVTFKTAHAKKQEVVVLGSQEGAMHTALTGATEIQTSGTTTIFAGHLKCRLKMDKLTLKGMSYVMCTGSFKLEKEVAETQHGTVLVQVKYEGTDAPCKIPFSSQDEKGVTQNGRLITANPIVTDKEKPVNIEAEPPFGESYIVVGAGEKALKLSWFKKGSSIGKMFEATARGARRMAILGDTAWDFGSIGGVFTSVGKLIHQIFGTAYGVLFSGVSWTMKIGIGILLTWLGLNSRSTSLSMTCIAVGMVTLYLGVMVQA

[12] = target: T2, Zika virus (ZIKV) virions, envelope …; remark: listed apart in the source
[13] = target: ZVEDIII, recombinant ZIKV E domain III (Zika virus, UniProt A0A024B7W1 586-693); assay: direct antigen coating ELISA
Chain of ZVEDIII, recombinant ZIKV E domain III (A0A024B7W1 586-693 limits assumed): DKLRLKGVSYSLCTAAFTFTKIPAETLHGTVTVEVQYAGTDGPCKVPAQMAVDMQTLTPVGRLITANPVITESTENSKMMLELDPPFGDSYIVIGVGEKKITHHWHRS

[14] = target: T5, ZVEDI, recombinant ZIKV E domain I (Zika virus, UniProt A0A024B7W1 291-585); assay: direct antigen coating ELISA
[15] = target: T3, ZIKV recombinant E (ZIKV E80), …; assay: direct antigen coating ELISA, 50 ng recombinant antigen per well; target ZIKV E80
[16] = target: T5, ZVEDI, recombinant ZIKV E domain I; assay: direct antigen coating ELISA, 50 ng recombinant antigen per well; target ZVEDI (domain I)
[17] = target: ZIKV/2015/Paraiba, envelope protein E (Zika virus strain ZIKV/2015/Paraiba); assay: cell-based or functional assay

Binder | FRNT50 (focus reduction neutralization on Vero cells) [1] | FRNT50 (focus reduction neutralization on Vero cells) [2] | FRNT50 (focus reduction neutralization on Vero cells) [3] | IC50 (read off the curve) [4] | IC50 (read off the curve) [5] | EC50 (read off the curve) [6] | IC50 (read off the curve) [7] | EC50 (read off the curve) [8] | EC50 (read off the curve) [9] | EC50 (read off the curve) [10] | binding result [11] | EC50 (read off the curve) [12] | binding result [13] | binding result [14] | EC50 [15] | EC50 [16] | EC50, Vero-based neutralization assay against ZIKA/2015/Paraiba [17]
Anti-ZIKV clone DT168(A)-D1_G-9E (G9E) (antibody, V domains shown, also called ZV2; G9E mAb) VH: EVQLVESGGGVVQPGRSLRLSCVASGFAFSNYHMHWVRQAPGKGLEWVAIIWDDGSDQYYADSVKGRFTISRDNSKNTLFLQMNRLRAEDTALYYCVGGSSAYNGDNGWREAASLDDWGQGTLVTVSS VL: QSALTQPASVSGSPGQSITIFCSGSSNDVGGYNYVSWYQQYPGKVPKLLIYDVNSRPSGVSNRFSGSKSGNTASLTISGLQAEDEADYYCSSYTSRRTWVFGGGTIVTVL | 14.6 ng/mL | 2.3 ng/mL | 4.7 ng/mL | ~0.05 µg/mL | ~0.05 µg/mL | ~0.3 µg/mL | ~0.4 µg/mL | ~0.03 µg/mL | ~0.2 µg/mL | ~0.2 µg/mL | no binding | ~0.03 µg/mL | no binding | no binding | – | – | –
Anti-ZIKV clone DT168(A)-D1_A-9E (A9E) (antibody, V domains shown, also called ZV1; A9E mAb) VH: EVQLLESGGGLVQAGGSLRLSCAASGFTFDTYAMSWVRQPPGKGLEWVSAISTGGGSKYYADSVKGRLTISRDNSQNTLYLQMSSLRADDTAVYYCARSDFWRSGRYYYYMDVWGRGTTVTVSS VL: QSALTQPASVSASPGQSITISCTGTHFDIVDYDYLSWYQQHPGNAPKLLIYGVSNRPSGVSSRFSGSKSGNTASLTISGLQAEDEGDYYCSSYSISSTLLVFGGGTKLSV | 21.7 ng/mL | 5.3 ng/mL | 4.7 ng/mL | ~0.07 µg/mL | ~0.06 µg/mL | – | ~0.008 µg/mL | ~0.02 µg/mL | – | – | no binding | ~0.02 µg/mL | no binding | – | 0.04 µg/mL | 2.5 µg/mL | 0.005 to 0.01 µg/mL
